B1: MFF (parent)
chain: MAEISRIQYEMEYTEGISQRMRVP

Variants of: B1
Assay: protein stability index of a GFP-peptide fusion (GPS, HEK-293T) (PSI 1-6); higher = more stable
Details: c terminus: a fixed tail appended
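Also: lentivirally expressed fusions sorted by FACS into six bins by GFP to DsRed ratio, PSI derived from sequencing read proportions per bin multiplied by bin number.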

Protein stability index, by site and new letter:
M11: Q 3.35, R 3.19, S 3.19, T 3.15, V 2.89, W 1.99, Y 2.67
E12: A 1.82, C 1.98, D 2.53, F 1.34, G 2.26, H 2.26, I 1.28, K 2.64, L 1.74, M 1.84, N 2.4, P 2.81, Q 1.87, R 2.31, S 2.42, T 1.86, V 1.76, W 2.12, Y 1.76
Y13: A 2.73, C 3.22, D 3.95, E 3.32, F 2.41, G 3.66, H 3.26, I 2.33, K 2.96, L 2.62, M 2.67, N 3.45, P 3.69, Q 3.35, R 2.71, S 3.79, T 3.46, V 3.12, W 2.77
T14: A 2.68, C 2.24, D 4.16, E 3.22, F 1.65, G 2.75, H 2.5, I 1.86, K 3.28, L 2.07, M 2.2, N 3.15, P 2.55, Q 3.08, R 2.35, S 2.71, V 2.56, W 1.97, Y 2.04
E15: A 2.1, C 1.46, D 2.64, F 2.17, G 2.15, H 2.21, I 2.11, K 2.43, L 1.66, M 1.75, N 3.14, P 1.96, Q 2.42, R 2.45, S 1.94, T 2.56, V 1.62, W 1.77, Y 2.03
G16: A 2.69, C 2.02, D 3.02, E 3.12, F 1.82, H 2.02, I 1.62, K 2.71, L 1.9, M 1.88, N 2.72, P 3.13, Q 2.29, R 1.9, S 2.2, T 2.22, V 2.07, W 2.04, Y 1.48
I17: A 3.03, C 2.92, D 3.95, E 3.36, F 1.99, G 3.55, H 3.4, K 3.18, L 2.52, M 2.35, N 3.3, P 3.57, Q 3.76, R 3.67, S 3.52, T 3.4, V 2.96, W 2.25, Y 2.62
S18: A 1.56, C 2.41, D 2.97, E 3.04, F 1.97, G 2.51, H 2.13, I 1.66, K 2.27, L 1.82, M 1.94, N 2.98, P 2.65, Q 2.62, R 2.27, T 2.6, V 1.74, W 1.89, Y 1.92
Q19: A 2.47, C 2.41, D 3.16, E 2.54, F 1.56, G 2.81, H 2.34, I 1.89, K 2.44, L 1.41, M 2.65, N 3.06, P 2.77, R 2.59, S 2.56, T 2.66, V 1.62, W 2.16, Y 1.81
R20: A 2.01, C 2.41, D 3.56, E 3.1, F 2.08, G 2.14, H 2.22, I 2.05
